The test system of the data set is Escherichia coli TOP10. Put plainly: shrunken log2 fold change of peptide-encoding DNA abundance (4.5 h post-induction vs induction); higher = less antimicrobial activity (less host growth inhibition). To be noted: time post-induction: 4.5 h; library: site-saturation at positions 5, 18, 19, 20.
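Further: peptides expressed intracellularly from a pBAD plasmid library in pooled LB shake-flask culture, induced with 0.3% L-arabinose, DNA abundance read by NGS, three biological replicates, DESeq2 with apeglm shrinkage.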

On to RRIRKRPPRLPRPRPRPYWVPRP, for which the “shrunken log2 fold change” value is -0.306.

Regarding RRIRQRPPRLPRPRPRPYIDPRP, the “shrunken log2 fold change” value is -0.606.

For RRIRPRPPRLPRPRPRPISAPRP, the “shrunken log2 fold change” value is -0.0726. For RRIRLRPPRLPRPRPRPAADPRP, the “shrunken log2 fold change” value is 0.832.

With RRIRCRPPRLPRPRPRPCADPRP, the “shrunken log2 fold change” value was -0.0836. For the sequence RRIRQRPPRLPRPRPRPWAGPRP, the “shrunken log2 fold change” value came out at 0.0868. As to RRIRRRPPRLPRPRPRPCKKPRP, the “shrunken log2 fold change” value was determined as 0.0185. On to RRIRERPPRLPRPRPRPTCPPRP, for which the “shrunken log2 fold change” value is -0.103.

For RRIRFRPPRLPRPRPRPFWCPRP, the “shrunken log2 fold change” value was -0.27. Next, RRIRARPPRLPRPRPRPTCNPRP: 0.327. Next, RRIRNRPPRLPRPRPRPHYEPRP: 0.0239; RRIRKRPPRLPRPRPRPYTDPRP: -0.0224; RRIRVRPPRLPRPRPRPPQAPRP: 0.0808. RRIRVRPPRLPRPRPRPILGPRP: the “shrunken log2 fold change” value is 0.0313.

Turning to RRIRKRPPRLPRPRPRPWYWPRP, the “shrunken log2 fold change” value is -0.151. Take RRIRMRPPRLPRPRPRPFPNPRP: the “shrunken log2 fold change” value is -0.288. Regarding RRIRVRPPRLPRPRPRPTRHPRP, the “shrunken log2 fold change” value amounted to 0.156.

On to RRIRARPPRLPRPRPRPRKLPRP, for which the “shrunken log2 fold change” value is 0.424. For RRIRTRPPRLPRPRPRPGCQPRP, the “shrunken log2 fold change” value was -0.0154. Take RRIRYRPPRLPRPRPRPPSEPRP: the “shrunken log2 fold change” value was -0.0723.

Turning to RRIRARPPRLPRPRPRPRDAPRP, the “shrunken log2 fold change” value is 0.91. As for RRIRYRPPRLPRPRPRPSYTPRP, the “shrunken log2 fold change” value is -1.38. RRIRRRPPRLPRPRPRPEPVPRP: the “shrunken log2 fold change” value was determined as 0.367. Next, RRIRDRPPRLPRPRPRPRRIPRP: 0.0214; RRIRNRPPRLPRPRPRPVNLPRP: -0.0237. For RRIRNRPPRLPRPRPRPFCFPRP, the “shrunken log2 fold change” value was found to be 0.567. As to RRIRWRPPRLPRPRPRPIESPRP, the “shrunken log2 fold change” value worked out at 0.467.

In the case of RRIRGRPPRLPRPRPRPFWGPRP, the “shrunken log2 fold change” value was found to be 0.289. In the case of RRIRMRPPRLPRPRPRPTFFPRP, the “shrunken log2 fold change” value was determined as 0.229. In the case of RRIRIRPPRLPRPRPRPRQRPRP, the “shrunken log2 fold change” value is 0.211. Regarding RRIRCRPPRLPRPRPRPNYNPRP, the “shrunken log2 fold change” value is -0.986.

As for RRIRNRPPRLPRPRPRPMAQPRP, the “shrunken log2 fold change” value is 0.0103. As for RRIRPRPPRLPRPRPRPARPPRP, the “shrunken log2 fold change” value was 0.626. In the case of RRIRDRPPRLPRPRPRPFELPRP, the “shrunken log2 fold change” value is -0.0281.

Turning to RRIRFRPPRLPRPRPRPVNGPRP, the “shrunken log2 fold change” value is -0.746. To RRIRWRPPRLPRPRPRPQYRPRP belongs 0.00862; to RRIRSRPPRLPRPRPRPGGPPRP, 0.415; to RRIRDRPPRLPRPRPRPDIVPRP, 0.0868. With RRIRYRPPRLPRPRPRPKACPRP, the “shrunken log2 fold change” value was -0.00227.

Regarding RRIRMRPPRLPRPRPRPRKWPRP, the “shrunken log2 fold change” value came out at 0.363. On to RRIRYRPPRLPRPRPRPFHYPRP, for which the “shrunken log2 fold change” value was -0.21. For RRIRFRPPRLPRPRPRPSSPPRP, the “shrunken log2 fold change” value was -0.284.

RRIRMRPPRLPRPRPRPVAHPRP: the “shrunken log2 fold change” value is 0.148. Next, RRIRARPPRLPRPRPRPLWNPRP: 0.0673; RRIRPRPPRLPRPRPRPMMLPRP: -0.143; RRIRARPPRLPRPRPRPLFAPRP: 0.647. Turning to RRIRFRPPRLPRPRPRPNTCPRP, the “shrunken log2 fold change” value was -0.483. As to RRIRTRPPRLPRPRPRPKLVPRP, the “shrunken log2 fold change” value turned out to be 0.016. On to RRIRIRPPRLPRPRPRPCVDPRP, for which the “shrunken log2 fold change” value is -0.0909. Take RRIRNRPPRLPRPRPRPLCIPRP: the “shrunken log2 fold change” value was -0.598. Regarding RRIRERPPRLPRPRPRPCNIPRP, the “shrunken log2 fold change” value was -0.0405. As for RRIRIRPPRLPRPRPRPCTWPRP, the “shrunken log2 fold change” value was -0.227. For RRIRWRPPRLPRPRPRPHTGPRP, the “shrunken log2 fold change” value is -0.233. Consider RRIRHRPPRLPRPRPRPQTSPRP, for which the “shrunken log2 fold change” value was -0.264. Next, RRIRWRPPRLPRPRPRPKIAPRP: 0.41; RRIRARPPRLPRPRPRPKSPPRP: 0.425; RRIRDRPPRLPRPRPRPPWKPRP: 0.141. Regarding RRIRDRPPRLPRPRPRPQTMPRP, the “shrunken log2 fold change” value was -0.067.

Consider RRIRDRPPRLPRPRPRPTTYPRP, for which the “shrunken log2 fold change” value is -0.0974.

Consider RRIRLRPPRLPRPRPRPIARPRP, for which the “shrunken log2 fold change” value is -0.0553.

For RRIRARPPRLPRPRPRPNMGPRP, the “shrunken log2 fold change” value was found to be 0.137. In the case of RRIRYRPPRLPRPRPRPFYNPRP, the “shrunken log2 fold change” value was -1.15. For RRIRWRPPRLPRPRPRPMFTPRP, the “shrunken log2 fold change” value is -0.0283.
